The source of these data is publication PMC3438978.

Read-outs that look alike come from different tables or passages of the source.

Test in all cases: SPR
In general terms: In SPR one partner is held on a chip, and binding of the other changes the refractive index at the surface.

The target of experiment [1] is Recombinant human IgE-Fc (composed of domains Cϵ2-Cϵ4) (human).
In experiment [2] the target is derCD23 (monomeric CD23 protein) (human) (UniProt P06734).
Experiment [3] has the same target. This is another data set of the same source.
The target in experiment [4] is Recombinant human IgE-Fc (composed of domains Cϵ2-Cϵ4) (human). The source holds these as a separate data set.

UniProt P06734, sequence (P06734 156-298): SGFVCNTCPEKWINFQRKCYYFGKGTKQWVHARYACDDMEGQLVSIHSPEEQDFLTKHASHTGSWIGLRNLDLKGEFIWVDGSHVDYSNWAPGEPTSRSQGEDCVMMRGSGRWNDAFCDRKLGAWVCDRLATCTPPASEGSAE

As for “derCD23 K276A (from UniProt P06734 1-321) (domain or fragment)”, the dissociation constant Kd – broadly, the concentration at which binding is half-saturated – in experiment [1] amounted to 10.9 µM.

“derCD23 L226A (from UniProt P06734 1-321) (domain or fragment)”: the Kd in experiment [1] worked out at 6.6 µM.

As for “derCD23 D236A (from UniProt P06734 1-321) (domain or fragment)”, the Kd in experiment [1] is 5.8 µM.

For “derCD23 R224A (from UniProt P06734 1-321) (domain or fragment)”, the Kd in experiment [1] was 26.2 µM.

In experiment [2], IgE-Fc D347A (domain or fragment) showed a Kd of 2.5 µM.

Consider “Recombinant human IgE-Fc (composed of domains Cϵ2-Cϵ4) (domain or fragment)”, for which the results for the Kd in experiment [2] and in experiment [3] were 2.3 µM and 2.4 µM, respectively.

In experiment [2], IgE-Fc K380A (domain or fragment) showed a Kd of 13.3 µM.

IgE-Fc E412A (domain or fragment) displayed a Kd in experiment [2] of 24.2 µM.

As to derCD23 E265A (domain or fragment), the Kd in experiment [1] is 2.5 µM.

IgE-Fc Q538A (domain or fragment) returned a Kd in experiment [2] of 2.4 µM.

Regarding “derCD23 D227A (from UniProt P06734 1-321) (domain or fragment)”, the equilibrium dissociation constant (Kd) in experiment [1] is 30.9 µM.

Substance IgE-Fc R376A (domain or fragment) had a Kd in experiment [2] of 19.7 µM.

With “derCD23 R188A (from UniProt P06734 1-321) (domain or fragment)”, in experiment [1], the Kd is 25 µM.

As for IgE-Fc K352A (domain or fragment), the equilibrium dissociation constant (Kd) in experiment [2] was 3.8 µM.

As to “derCD23 (monomeric CD23 protein) (from UniProt P06734 156-298) (domain or fragment)”, the Kd in experiment [1] and in experiment [4] was 2.3 µM in each case.

As for “derCD23 E257A (from UniProt P06734 1-321) (domain or fragment)”, the Kd in experiment [1] was determined as 26.7 µM.

In the case of IgE-Fc K435A (domain or fragment), in experiment [2], the Kd was 5 µM.

Substance IgE-Fc P439A (domain or fragment) registered a Kd in experiment [2] of 2.5 µM.

In turn, IgE-Fc R351A (domain or fragment) gave an equilibrium dissociation constant (Kd) in experiment [2] of 2.6 µM.

As to “derCD23 D192A (from UniProt P06734 1-321) (domain or fragment)”, the Kd in experiment [1] worked out at 4.3 µM.

For the substance IgE-Fc D409A (domain or fragment), in experiment [2], the Kd is 26.3 µM.

In experiment [2], IgE-Fc Q535A (domain or fragment) came in with a Kd of 2.5 µM.

As for “derCD23 Y189A (from UniProt P06734 1-321) (domain or fragment)”, the equilibrium dissociation constant (Kd) in experiment [1] amounted to 15.6 µM.
